We go through one molecule from article PMC9521185, “Self-assembly and label-free fluorescent aptasensor based on deoxyribonucleic acid intercalated dyes for detecting lactoferrin in milk powder”.

The series concerns the target lactoferrin (LF) (bovine (milk), UniProt P24627 20-708). The series is described as follows: PicoGreen dye-displacement fluorescence; PicoGreen; LF 100 nM and 1 uM; linear 20-500 nM, LOD 3 nM; Buffer, salt, pH and temperature not in the material; fluorescence ex 485 nm / em 528 nm, microplate reader. The conditions noted are these: protein: commercial; label: none (label-free; PicoGreen intercalated).

Chain of lactoferrin (LF) (P24627 20-708): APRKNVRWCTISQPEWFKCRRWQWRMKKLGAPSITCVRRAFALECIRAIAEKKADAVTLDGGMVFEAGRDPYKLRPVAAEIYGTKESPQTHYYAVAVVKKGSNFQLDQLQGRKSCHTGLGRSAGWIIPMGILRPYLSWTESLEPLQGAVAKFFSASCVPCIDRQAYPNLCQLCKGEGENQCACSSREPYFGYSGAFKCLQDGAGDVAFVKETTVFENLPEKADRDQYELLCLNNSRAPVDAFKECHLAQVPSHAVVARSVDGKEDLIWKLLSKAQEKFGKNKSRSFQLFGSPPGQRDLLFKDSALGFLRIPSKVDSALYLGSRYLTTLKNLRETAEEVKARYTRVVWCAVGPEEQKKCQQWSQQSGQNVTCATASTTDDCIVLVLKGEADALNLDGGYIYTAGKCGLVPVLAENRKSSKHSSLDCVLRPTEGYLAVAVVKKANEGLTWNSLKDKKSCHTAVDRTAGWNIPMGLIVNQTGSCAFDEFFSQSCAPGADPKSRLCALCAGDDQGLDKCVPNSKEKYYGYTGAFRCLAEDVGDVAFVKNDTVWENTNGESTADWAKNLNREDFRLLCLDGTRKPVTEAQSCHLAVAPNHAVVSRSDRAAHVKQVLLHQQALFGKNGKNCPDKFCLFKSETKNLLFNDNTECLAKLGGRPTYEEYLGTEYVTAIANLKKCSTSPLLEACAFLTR

Consider TGGTGCTGCCCCTAGTCTCCGGCTGATAGCTGCTTCTTGG (ssDNA) [LF aptamer], for which the binding result was “binds”.
